Results on one molecule are retold here after patent EP4328239A1 (Max-Delbrück-Centrum für Molekulare Medizin in der …, dated 2024).

The test concerns the target … (SEQ ID NO: 3) in complex with HLA-B*44:03 (human). The test is described as follows: cell-based or functional assay.

B1: TCR6 (TCR, V domains shown, not shown: a dimerising Fc or GST)
V domain 1: QKEVEQNSGPLSVPEGAIASLNCTYSDRGSQSFFWYRQYSGKSPELIMFIYSNGDKEDGRFTAQLNKASQYVSLLIRDSQPSDSATYLCAVSSNTGKLIFGQGTTLQVKP
V domain 2: DAGVIQSPRHEVTEMGQEVTLRCKPISGHNSLFWYRQTMMRGLELLIYFNNNVPIDDSGMPEDRFSAKMPNASFSTLKIQPSEPRDSAVYFCASKWGQGAGDTQYFGPGTRLTVL
Turning to B1, the EC50 killing capacity is 1.4 E:T ratio.
